Earlier results in article PMC10584158.

Biological target: IL-6 (Homo sapiens) (UniProt P05231)
Sequence (P05231 30-212): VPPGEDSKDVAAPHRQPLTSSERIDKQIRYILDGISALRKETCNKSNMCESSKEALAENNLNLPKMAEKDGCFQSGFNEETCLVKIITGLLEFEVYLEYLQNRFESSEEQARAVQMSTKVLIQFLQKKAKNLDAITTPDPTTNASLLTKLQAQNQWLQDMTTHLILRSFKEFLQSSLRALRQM

- Kd: 4 pM
Substance: Clazakizumab
